B1: HDV Ribozyme (parent)
chain: GGCCGGCAUGGUCCCAGCCUCCUCGCUGGCGCCGGCUGGGCAACAUUCCGAGGGGACCGUCCCCUCGGUAAUGGCGAAUGGGACCCA

Variants of: B1
Assay: self-cleavage, relative activity (ratio to wild type); higher = more cleavage; co-transcriptional
For GGCCGGCAUGGUCCCAGCCUCCUCGCUGGCGCCGGCUGGGCAACAUUCCGAGGGGACCGUCCCCUCGGUAAUGGCGAAUCGGACCGA [G80C C86G], the self-cleavage was 0.192. Variant GGCCGGCAUGGUCCCAGCCUCCUCGCUGGCGCCGGCUGGGCAACAUUCCGAGGGGACCGUCCCCUCGGUAAUGGCGAAUCUGACCCA [G80C G81U] has a self-cleavage of 0.231. In the case of GGCCGGCAUGGUCCCAGCCUCCUCGCUGGCGCCGGCUGGGCAACAUUCCGAGGGGACCGUCCCCUCGGUAAUGGCGAAUCCGACCCA [G80C G81C], the self-cleavage is reported as 0.186. Work on GGCCGGCAUGGUCCCAGCCUCCUCGCUGGCGCCGGCUGGGCAACAUUCCGAGGGGACCGUCCCCUCGGUAAUGGCGAAUUCGACCCA [G80U G81C] yielded a self-cleavage of 0.199. In the case of GGCCGGCAUGGUCCCAGCCUCCUCGCUGGCGCCGGCUGGGCAACAUUCCGAGGGGACCGUCCCCUCGGUAAUGGCGAAUCGGACACA [G80C C85A], the self-cleavage is reported as 0.117. GGCCGGCAUGGUCCCAGCCUCCUCGCUGGCGCCGGCUGGGCAACAUUCCGAGGGGACCGUCCCCUCGGUAAUGGCGAAUCGGACUCA [G80C C85U] showed a self-cleavage of 0.194. Variant GGCCGGCAUGGUCCCAGCCUCCUCGCUGGCGCCGGCUGGGCAACAUUCCGAGGGGACCGUCCCCUCGGUAAUGGCGAAUCGGGCCCA [G80C A83G] has a self-cleavage of 0.102. Variant GGCCGGCAUGGUCCCAGCCUCCUCGCUGGCGCCGGCUGGGCAACAUUCCGAGGGGACCGUCCCCUCGGUAAUGGCGAAUCGCACCCA [G80C G82C] has a self-cleavage of 0.166. With GGCCGGCAUGGUCCCAGCCUCCUCGCUGGCGCCGGCUGGGCAACAUUCCGAGGGGACCGUCCCCUCGGUAAUGGCGAAUCGAACCCA [G80C G82A] the self-cleavage was 0.0824. For GGCCGGCAUGGUCCCAGCCUCCUCGCUGGCGCCGGCUGGGCAACAUUCCGAGGGGACCGUCCCCUCGGUAAUGGCGAAUCGUACCCA [G80C G82U], the self-cleavage was 0.0782. For GGCCGGCAUGGUCCCAGCCUCCUCGCUGGCGCCGGCUGGGCAACAUUCCGAGGGGACCGUCCCCUCGGUAAUGGCGAAUGAGGCCCA [G81A A83G], the self-cleavage was 0.236. Work on GGCCGGCAUGGUCCCAGCCUCCUCGCUGGCGCCGGCUGGGCAACAUUCCGAGGGGACCGUCCCCUCGGUAAUGGCGAAUUGGACUCA [G80U C85U] yielded a self-cleavage of 0.227. GGCCGGCAUGGUCCCAGCCUCCUCGCUGGCGCCGGCUGGGCAACAUUCCGAGGGGACCGUCCCCUCGGUAAUGGCGAAUAGGAUCCA [G80A C84U] gave a self-cleavage of 0.197. With GGCCGGCAUGGUCCCAGCCUCCUCGCUGGCGCCGGCUGGGCAACAUUCCGAGGGGACCGUCCCCUCGGUAAUGGCGAAUAGGACCCU [G80A A87U] the self-cleavage was 0.441. Variant GGCCGGCAUGGUCCCAGCCUCCUCGCUGGCGCCGGCUGGGCAACAUUCCGAGGGGACCGUCCCCUCGGUAAUGGCGAAUUGUACCCA [G80U G82U] has a self-cleavage of 0.147. Variant GGCCGGCAUGGUCCCAGCCUCCUCGCUGGCGCCGGCUGGGCAACAUUCCGAGGGGACCGUCCCCUCGGUAAUGGCGAAUUGAACCCA [G80U G82A] has a self-cleavage of 0.0297. GGCCGGCAUGGUCCCAGCCUCCUCGCUGGCGCCGGCUGGGCAACAUUCCGAGGGGACCGUCCCCUCGGUAAUGGCGAAUUGGACCAA [G80U C86A] showed a self-cleavage of 0.239. Variant GGCCGGCAUGGUCCCAGCCUCCUCGCUGGCGCCGGCUGGGCAACAUUCCGAGGGGACCGUCCCCUCGGUAAUGGCGAAUUGGACCUA [G80U C86U] has a self-cleavage of 0.281. GGCCGGCAUGGUCCCAGCCUCCUCGCUGGCGCCGGCUGGGCAACAUUCCGAGGGGACCGUCCCCUCGGUAAUGGCGAAUAUGACCCA [G80A G81U] gave a self-cleavage of 0.0936. For GGCCGGCAUGGUCCCAGCCUCCUCGCUGGCGCCGGCUGGGCAACAUUCCGAGGGGACCGUCCCCUCGGUAAUGGCGAAUACGACCCA [G80A G81C], the self-cleavage was 0.106. In the case of GGCCGGCAUGGUCCCAGCCUCCUCGCUGGCGCCGGCUGGGCAACAUUCCGAGGGGACCGUCCCCUCGGUAAUGGCGAAUAGCACCCA [G80A G82C], the self-cleavage is reported as 0.0978. Work on GGCCGGCAUGGUCCCAGCCUCCUCGCUGGCGCCGGCUGGGCAACAUUCCGAGGGGACCGUCCCCUCGGUAAUGGCGAAUAGAACCCA [G80A G82A] yielded a self-cleavage of 0.244. For GGCCGGCAUGGUCCCAGCCUCCUCGCUGGCGCCGGCUGGGCAACAUUCCGAGGGGACCGUCCCCUCGGUAAUGGCGAAUAGGACUCA [G80A C85U], the self-cleavage was 0.339. In the case of GGCCGGCAUGGUCCCAGCCUCCUCGCUGGCGCCGGCUGGGCAACAUUCCGAGGGGACCGUCCCCUCGGUAAUGGCGAAUAGGACGCA [G80A C85G], the self-cleavage is reported as 0.312. Variant GGCCGGCAUGGUCCCAGCCUCCUCGCUGGCGCCGGCUGGGCAACAUUCCGAGGGGACCGUCCCCUCGGUAAUGGCGAAUUGGUCCCA [G80U A83U] has a self-cleavage of 0.181. GGCCGGCAUGGUCCCAGCCUCCUCGCUGGCGCCGGCUGGGCAACAUUCCGAGGGGACCGUCCCCUCGGUAAUGGCGAAUCGGACCCC [G80C A87C] showed a self-cleavage of 0.237. GGCCGGCAUGGUCCCAGCCUCCUCGCUGGCGCCGGCUGGGCAACAUUCCGAGGGGACCGUCCCCUCGGUAAUGGCGAAUCGGACCCG [G80C A87G] gave a self-cleavage of 0.211. For GGCCGGCAUGGUCCCAGCCUCCUCGCUGGCGCCGGCUGGGCAACAUUCCGAGGGGACCGUCCCCUCGGUAAUGGCGAAUGAGACCCC [G81A A87C], the self-cleavage was 0.455. In the case of GGCCGGCAUGGUCCCAGCCUCCUCGCUGGCGCCGGCUGGGCAACAUUCCGAGGGGACCGUCCCCUCGGUAAUGGCGAAUAGGACCUA [G80A C86U], the self-cleavage is reported as 0.409. Work on GGCCGGCAUGGUCCCAGCCUCCUCGCUGGCGCCGGCUGGGCAACAUUCCGAGGGGACCGUCCCCUCGGUAAUGGCGAAUAGGACCAA [G80A C86A] yielded a self-cleavage of 0.532. GGCCGGCAUGGUCCCAGCCUCCUCGCUGGCGCCGGCUGGGCAACAUUCCGAGGGGACCGUCCCCUCGGUAAUGGCGAAUCGGACCCA [G80C] showed a self-cleavage of 0.187. In the case of GGCCGGCAUGGUCCCAGCCUCCUCGCUGGCGCCGGCUGGGCAACAUUCCGAGGGGACCGUCCCCUCGGUAAUGGCGAAUUGGACCCA [G80U], the self-cleavage is reported as 0.223.

Source: the RNAGym collection of RNA variant scans (doi:10.7554/elife.80360)
